We go through seven molecules from article PMC4910529 (The EMBO Journal, 2016).

To fix the notation:
B2: SPOP^28–359 (speckle‐type POZ protein, residues 28–359) (domain or fragment)
chain: KVVKFSYMWTINNFSFCREEMGEVIKSSTFSSGANDKLKWCLRVNPKGLDEESKDYLSLYLLLVSCPKSEVRAKFKFSILNAKGEETKAMESQRAYRFVQGKDWGFKKFIRRDFLLDEANGLLPDDKLTLFCEVSVVQDSVNISGQNTMNMVKVPECRLADELGGLWENSRFTDCCLCVAGQEFQAHKAILAARSPVFSAMFEHEMEESKKNRVEINDVEPEVFKEMMCFIYTGKAPNLDKMADDLLAAADKYALERLKVMCEDALCSNLSVENAAEILILADLHSADQLKTQAVDFINYHASDVLETSGWKSMVVSHPHLVAEAYRSLASA
B3: SPOP mutBACK (SPOP 28–359 Y353E) (domain or fragment)
chain: KVVKFSYMWTINNFSFCREEMGEVIKSSTFSSGANDKLKWCLRVNPKGLDEESKDYLSLYLLLVSCPKSEVRAKFKFSILNAKGEETKAMESQRAYRFVQGKDWGFKKFIRRDFLLDEANGLLPDDKLTLFCEVSVVQDSVNISGQNTMNMVKVPECRLADELGGLWENSRFTDCCLCVAGQEFQAHKAILAARSPVFSAMFEHEMEESKKNRVEINDVEPEVFKEMMCFIYTGKAPNLDKMADDLLAAADKYALERLKVMCEDALCSNLSVENAAEILILADLHSADQLKTQAVDFINYHASDVLETSGWKSMVVSHPHLVAEAERSLASA

For data set [1], the target named is SPOP mutBTB (SPOP 28–359 L186D L190D L193D I217K) (UniProt O43791). Description: AUC.
For data set [2] the target is unchanged. Description: CG-MALS.
The target of data set [3] is SPOP mutBACK (SPOP 28–359 Y353E) (UniProt O43791). Description: cross-linking.
Data set [4] shares this target. Nature of the data set: CG-MALS.
Data set [5] deals with SPOP X‐BACK. Description: CG-MALS.
Data set [6] deals with the molecule itself. Description: cross-linking.
Data set [7] deals with the molecule itself. Description: native MS.
Data set [8] concerns the molecule itself. Nature of the data set: CG-MALS.
The target of data set [9] is B2. Nature of the data set: SEC. In general terms: SEC sorts molecules by how far they enter the pores of the column.
Data set [10] concerns the target B3. Nature of the data set: fluorescence polarisation. A general note: In fluorescence polarisation assays a small probe gives low polarisation when free and higher when bound to something large.

Where no end group is shown, it is not given here.

As usually defined, the Kd is the constant that tells how readily two partners part at equilibrium. One may read the stoichiometry N as a count of units in the complex or per binding partner. Take “SPOP mutBTB (SPOP 28–359 L186D L190D L193D I217K) (from UniProt O43791 28-359) (domain or fragment)”: the Kd in data set [1] was determined as 32.5 µM; in data set [2], 36 µM. Moreover, the stoichiometry N in data set [2] stood at 2.

For the molecule “SPOP mutBACK (SPOP 28–359 Y353E) (from UniProt O43791 28-359) (domain or fragment)”, the stoichiometry N in data set [3] and in data set [4] was 2 each time. In data set [5], SPOP X‐BACK showed a Kd of 118 µM.

B1: SPOP ΔBACK (domain or fragment)
chain: KVVKFSYMWTINNFSFCREEMGEVIKSSTFSSGANDKLKWCLRVNPKGLDEESKDYLSLYLLLVSCPKSEVRAKFKFSILNAKGEETKAMESQRAYRFVQGKDWGFKKFIRRDFLLDEANGLLPDDKLTLFCEVSVVQDSVNISGQNTMNMVKVPECRLADELGGLWENSRFTDCCLCVAGQEFQAHKAILAARSPVFSAMFEHEMEESKKNRVEINDVEPEVFKEMMCFIYTGKAPNLDKMADDLLAAADKYALERLKVMCEDALCSNLSVENAAEILILADLHSADQLKTQAVDFINYHASDVLETSG
Take B1: the “stoichiometry N” value in [6] is 2. With B2, the “stoichiometry N” value in data set [7] is 8. This molecule came in with a Kd in [8] of 2.4 µM.

With B3, the binding result in [9] is listed as “binds”.

B4: Puc peptide, residues 91–107 of Puckered, fluorescein-labelled (peptide)
peptide: ENLACDEVTSTTSSSST-NH2
modifications: not fully specified (N-terminus)
In turn, B4 registered a Kd in [10] of 4.1 µM.
